Measured values taken from patent US20250186594A1 (BRIGHT PEAK THERAPEUTICS, published 2025).
Blank lines part the entries; values can stand above or below the binder they belong to.

Assays:
[1] = biological target: T1, IL-18 receptor (IL-18R) on HEK-Blue IL18R reporter cells (UniProt Q13478 19-541; O95256 20-599, limits assumed); test: cell-based or functional assay
T1 sequence (looked up) 1: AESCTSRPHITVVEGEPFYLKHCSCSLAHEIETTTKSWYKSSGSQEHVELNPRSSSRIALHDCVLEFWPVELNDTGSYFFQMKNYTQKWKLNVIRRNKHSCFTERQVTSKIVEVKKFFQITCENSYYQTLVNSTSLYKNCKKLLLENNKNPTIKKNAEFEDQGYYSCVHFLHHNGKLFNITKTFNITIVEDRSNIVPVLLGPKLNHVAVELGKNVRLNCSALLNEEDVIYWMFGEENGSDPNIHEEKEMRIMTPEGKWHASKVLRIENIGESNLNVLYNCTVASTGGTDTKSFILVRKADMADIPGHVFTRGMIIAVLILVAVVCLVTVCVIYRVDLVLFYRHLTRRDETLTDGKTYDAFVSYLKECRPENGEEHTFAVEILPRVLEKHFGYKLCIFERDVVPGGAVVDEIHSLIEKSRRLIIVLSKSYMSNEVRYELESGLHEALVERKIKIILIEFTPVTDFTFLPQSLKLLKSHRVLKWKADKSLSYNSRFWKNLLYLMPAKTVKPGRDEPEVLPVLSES
T1 sequence (looked up) 2: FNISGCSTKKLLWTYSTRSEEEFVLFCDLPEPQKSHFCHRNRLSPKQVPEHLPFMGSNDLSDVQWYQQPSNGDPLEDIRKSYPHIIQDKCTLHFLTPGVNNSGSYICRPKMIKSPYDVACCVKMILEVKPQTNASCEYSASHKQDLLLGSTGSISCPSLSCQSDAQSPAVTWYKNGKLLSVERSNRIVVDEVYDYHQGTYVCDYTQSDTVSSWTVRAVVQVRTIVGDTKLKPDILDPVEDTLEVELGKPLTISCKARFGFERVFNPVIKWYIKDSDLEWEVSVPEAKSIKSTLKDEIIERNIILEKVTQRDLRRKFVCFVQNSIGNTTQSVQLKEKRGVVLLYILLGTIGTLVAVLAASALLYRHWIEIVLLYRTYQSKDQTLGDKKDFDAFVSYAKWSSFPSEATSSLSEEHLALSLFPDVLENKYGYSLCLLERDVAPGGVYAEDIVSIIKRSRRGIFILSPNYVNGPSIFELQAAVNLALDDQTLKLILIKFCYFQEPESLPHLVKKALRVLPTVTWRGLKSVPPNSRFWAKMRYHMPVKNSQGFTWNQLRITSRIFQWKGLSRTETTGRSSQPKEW

[2] = biological target: T2, IL-18Rα/β heterodimer (Fc fused human IL-18Rα mixed with Fc fused human IL-18Rβ) (human, UniProt Q13478 19-329; O95256 20-356, limits assumed); test: SPR, Fc-IL-18Rα/β captured, heterogeneous ligand fit
T2 construct: Alpha and beta Fc fusions were mixed and pre-incubated for 30 min before capture on anti-human IgG; also called alpha/beta heterodimer IL-18 receptor; heterodimeric human IL-18 receptor alpha (CD218a) and IL-18R accessory protein (IL-18RAP/CDw218b); not shown: Fc
T2 sequence (looked up) 1: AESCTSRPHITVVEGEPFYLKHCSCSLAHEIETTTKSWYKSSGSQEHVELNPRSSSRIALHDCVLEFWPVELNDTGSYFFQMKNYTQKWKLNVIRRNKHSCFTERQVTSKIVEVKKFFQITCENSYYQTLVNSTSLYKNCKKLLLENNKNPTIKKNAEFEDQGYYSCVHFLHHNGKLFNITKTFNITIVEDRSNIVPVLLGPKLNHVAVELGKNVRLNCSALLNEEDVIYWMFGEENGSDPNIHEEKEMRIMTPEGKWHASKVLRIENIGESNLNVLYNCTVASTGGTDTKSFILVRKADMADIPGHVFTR
T2 sequence (looked up) 2: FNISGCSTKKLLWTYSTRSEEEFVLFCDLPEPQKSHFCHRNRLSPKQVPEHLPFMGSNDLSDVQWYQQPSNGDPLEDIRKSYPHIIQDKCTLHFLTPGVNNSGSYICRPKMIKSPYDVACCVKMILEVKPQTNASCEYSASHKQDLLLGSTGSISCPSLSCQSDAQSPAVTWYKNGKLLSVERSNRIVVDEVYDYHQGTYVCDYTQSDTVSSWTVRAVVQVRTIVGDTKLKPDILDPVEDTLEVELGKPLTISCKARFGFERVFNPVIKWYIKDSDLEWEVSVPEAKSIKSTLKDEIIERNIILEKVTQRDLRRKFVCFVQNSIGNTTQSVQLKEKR
Experimental: The interaction of the wild type and of modified IL-18 polypeptides with human IL-18 receptor subunits are measured with Surface Plasmon Resonance (SPR) technology. Anti-human IgG antibodies are bound by amine coupling onto a CM5 chip to capture 6 µg/mL of Fc fused human IL-18Rα, […] of Fc fused human IL-18Rβ, or […] of Fc fused human IL-18BP isoform a (IL-18BPa) for 30 min before capture. In other settings, […] of alpha and beta IL-18 receptors are mixed and pre-incubated for 30 min before capture of the alpha/beta heterodimer IL-18 receptor.
The kinetic binding of the IL-18 analytes are measured with a Biacore 8K instrument in two fold serial dilutions starting at […] down to 0.98 nM. Regeneration of the surface back to amine coupled anti IgG antibody is done after every concentration of analyte. To measure the protein association to the receptors, the samples are injected with a flow rate of […] for 60 s, followed by 300 s buffer only to detect the dissociation. The used running buffer is 1×PBS with 0.05% Tween20. The relative response units (RU, Y-axis) are plotted against time (s, X-axis) and analyzed in a kinetic 1:1 binding model for the monomer receptor binding and for the binding to the IL-18BP. A kinetic heterogenous ligand fit model is applied for the alpha/beta heterodimer binding.

B2: IL-18 variant SEQ ID NO: 208 (V11I, C38A, K53A, D54A, C76A, C127A) (ligand)
chain: YFGKLESKLSIIRNLNDQVLFIDQGNRPLFEDMTDSDARDNAPRTIFIISMYAASQPRGMAVTISVKCEKISTLSAENKIISFKEMNPPDNIKDTKSDIIFFQRSVPGHDNKMQFESSSYEGYFLAAEKERDLFKLILKKEDELGDRSIMFTVQNED
EC50, HEK-Blue IL18R reporter [1]: 1 nM

B3: IL-18 variant SEQ ID NO: 209 (F2A, V11I, C38A, K53A, C76A, C127A) (ligand)
chain: YAGKLESKLSIIRNLNDQVLFIDQGNRPLFEDMTDSDARDNAPRTIFIISMYADSQPRGMAVTISVKCEKISTLSAENKIISFKEMNPPDNIKDTKSDIIFFQRSVPGHDNKMQFESSSYEGYFLAAEKERDLFKLILKKEDELGDRSIMFTVQNED
EC50, HEK-Blue IL18R reporter [1]: 7.28 nM

B4: IL-18 variant SEQ ID NO: 211 (V11I, T34A, C38A, K53A, C76A, C127A) (ligand)
chain: YFGKLESKLSIIRNLNDQVLFIDQGNRPLFEDMADSDARDNAPRTIFIISMYADSQPRGMAVTISVKCEKISTLSAENKIISFKEMNPPDNIKDTKSDIIFFQRSVPGHDNKMQFESSSYEGYFLAAEKERDLFKLILKKEDELGDRSIMFTVQNED
EC50, HEK-Blue IL18R reporter [1]: 0.7 nM

B6: IL-18 variant SEQ ID NO: 205 (V11I, C38A, K53A, T63A, C76A, C127A) (ligand)
chain: YFGKLESKLSIIRNLNDQVLFIDQGNRPLFEDMTDSDARDNAPRTIFIISMYADSQPRGMAVAISVKCEKISTLSAENKIISFKEMNPPDNIKDTKSDIIFFQRSVPGHDNKMQFESSSYEGYFLAAEKERDLFKLILKKEDELGDRSIMFTVQNED
EC50, HEK-Blue IL18R reporter [1]: 0.17 nM

B7: IL-18 variant SEQ ID NO: 204 (V11I, C38A, K53A, C76A, C127A) (ligand)
chain: YFGKLESKLSIIRNLNDQVLFIDQGNRPLFEDMTDSDARDNAPRTIFIISMYADSQPRGMAVTISVKCEKISTLSAENKIISFKEMNPPDNIKDTKSDIIFFQRSVPGHDNKMQFESSSYEGYFLAAEKERDLFKLILKKEDELGDRSIMFTVQNED
EC50, HEK-Blue IL18R reporter [1]: 0.98 nM

B10: IL-18 variant SEQ ID NO: 213 (V11I, S36A, C38A, K53A, C76A, C127A) (ligand)
chain: YFGKLESKLSIIRNLNDQVLFIDQGNRPLFEDMTDADARDNAPRTIFIISMYADSQPRGMAVTISVKCEKISTLSAENKIISFKEMNPPDNIKDTKSDIIFFQRSVPGHDNKMQFESSSYEGYFLAAEKERDLFKLILKKEDELGDRSIMFTVQNED
EC50, HEK-Blue IL18R reporter [1]: 0.25 nM

B11: IL-18 variant SEQ ID NO: 206 (V11I, C38A, K53A, S55A, C76A, C127A) (ligand)
chain: YFGKLESKLSIIRNLNDQVLFIDQGNRPLFEDMTDSDARDNAPRTIFIISMYADAQPRGMAVTISVKCEKISTLSAENKIISFKEMNPPDNIKDTKSDIIFFQRSVPGHDNKMQFESSSYEGYFLAAEKERDLFKLILKKEDELGDRSIMFTVQNED
EC50, HEK-Blue IL18R reporter [1]: 3.63 nM

B12: IL-18 variant SEQ ID NO: 212 (V11I, D35A, C38A, K53A, C76A, C127A) (ligand)
chain: YFGKLESKLSIIRNLNDQVLFIDQGNRPLFEDMTASDARDNAPRTIFIISMYADSQPRGMAVTISVKCEKISTLSAENKIISFKEMNPPDNIKDTKSDIIFFQRSVPGHDNKMQFESSSYEGYFLAAEKERDLFKLILKKEDELGDRSIMFTVQNED
EC50, HEK-Blue IL18R reporter [1]: 13.1 nM

B15: IL-18 variant SEQ ID NO: 214 (V11I, D37A, C38A, K53A, C76A, C127A) (ligand)
chain: YFGKLESKLSIIRNLNDQVLFIDQGNRPLFEDMTDSAARDNAPRTIFIISMYADSQPRGMAVTISVKCEKISTLSAENKIISFKEMNPPDNIKDTKSDIIFFQRSVPGHDNKMQFESSSYEGYFLAAEKERDLFKLILKKEDELGDRSIMFTVQNED
EC50, HEK-Blue IL18R reporter [1]: 14.1 nM

B16: IL-18 variant SEQ ID NO: 210 (V11I, E31A, C38A, K53A, C76A, C127A) (ligand)
chain: YFGKLESKLSIIRNLNDQVLFIDQGNRPLFADMTDSDARDNAPRTIFIISMYADSQPRGMAVTISVKCEKISTLSAENKIISFKEMNPPDNIKDTKSDIIFFQRSVPGHDNKMQFESSSYEGYFLAAEKERDLFKLILKKEDELGDRSIMFTVQNED
EC50, HEK-Blue IL18R reporter [1]: 6.6 nM

B17: IL-18 variant SEQ ID NO: 62 with 30 kDa PEG (E6K, C38A, K53A, C127A, C68-30kPEG) (ligand)
chain: YFGKLKSKLSVIRNLNDQVLFIDQGNRPLFEDMTDSDARDNAPRTIFIISMYADSQPRGMAVTISVKCEKISTLSCENKIISFKEMNPPDNIKDTKSDIIFFQRSVPGHDNKMQFESSSYEGYFLAAEKERDLFKLILKKEDELGDRSIMFTVQNED
modifications: 30 kDa PEG on Cys 68 (C68-30kPEG)
notes: also called 62 + PEG
Kd [2]: 14.9 nM | koff [2]: 0.000779 s⁻¹ | kon [2]: 52300 M⁻¹ s⁻¹

Further lines, results first:

EC50, HEK-Blue IL18R reporter [1]: 0.04 nM
B1: IL-18 variant SEQ ID NO: 240 (E6R, V11I, C38A, K53A, T63A, C76A, C127A) (ligand)
chain: YFGKLRSKLSIIRNLNDQVLFIDQGNRPLFEDMTDSDARDNAPRTIFIISMYADSQPRGMAVAISVKCEKISTLSAENKIISFKEMNPPDNIKDTKSDIIFFQRSVPGHDNKMQFESSSYEGYFLAAEKERDLFKLILKKEDELGDRSIMFTVQNED

EC50, HEK-Blue IL18R reporter [1]: 11.9 nM
B5: IL-18 variant SEQ ID NO: 215 (V11I, E31A, D37A, C38A, K53A, C76A, C127A) (ligand)
chain: YFGKLESKLSIIRNLNDQVLFIDQGNRPLFADMTDSAARDNAPRTIFIISMYADSQPRGMAVTISVKCEKISTLSAENKIISFKEMNPPDNIKDTKSDIIFFQRSVPGHDNKMQFESSSYEGYFLAAEKERDLFKLILKKEDELGDRSIMFTVQNED

EC50, HEK-Blue IL18R reporter [1]: 0.52 nM
B8: IL-18 variant SEQ ID NO: 216 (V11I, C38A, D40A, K53A, C76A, C127A) (ligand)
chain: YFGKLESKLSIIRNLNDQVLFIDQGNRPLFEDMTDSDARANAPRTIFIISMYADSQPRGMAVTISVKCEKISTLSAENKIISFKEMNPPDNIKDTKSDIIFFQRSVPGHDNKMQFESSSYEGYFLAAEKERDLFKLILKKEDELGDRSIMFTVQNED

EC50, HEK-Blue IL18R reporter [1]: 0.02 nM
B9: IL-18 variant SEQ ID NO: 243 (Y1M, E6K, V11I, C38A, K53A, T63A, C76A, C127A) (ligand)
chain: MFGKLKSKLSIIRNLNDQVLFIDQGNRPLFEDMTDSDARDNAPRTIFIISMYADSQPRGMAVAISVKCEKISTLSAENKIISFKEMNPPDNIKDTKSDIIFFQRSVPGHDNKMQFESSSYEGYFLAAEKERDLFKLILKKEDELGDRSIMFTVQNED

EC50, HEK-Blue IL18R reporter [1]: 1.95 nM
B13: IL-18 variant SEQ ID NO: 218 (V11I, C38A, K53A, C76A, C127A, D132A) (ligand)
chain: YFGKLESKLSIIRNLNDQVLFIDQGNRPLFEDMTDSDARDNAPRTIFIISMYADSQPRGMAVTISVKCEKISTLSAENKIISFKEMNPPDNIKDTKSDIIFFQRSVPGHDNKMQFESSSYEGYFLAAEKERALFKLILKKEDELGDRSIMFTVQNED

EC50, HEK-Blue IL18R reporter [1]: 11.7 nM
B14: IL-18 variant SEQ ID NO: 217 (V11I, C38A, N41A, K53A, C76A, C127A) (ligand)
chain: YFGKLESKLSIIRNLNDQVLFIDQGNRPLFEDMTDSDARDAAPRTIFIISMYADSQPRGMAVTISVKCEKISTLSAENKIISFKEMNPPDNIKDTKSDIIFFQRSVPGHDNKMQFESSSYEGYFLAAEKERDLFKLILKKEDELGDRSIMFTVQNED
